The values that follow come from US20180273604A1 (ALBERT EINSTEIN COLLEGE OF MEDICINE, published 2018).

Sequences and labels used below:
B1: B7-1, human, expressed on cells (ligand, UniProt P33681 35-288, looked up)
chain: VIHVTKEVKEVATLSCGHNVSVEELAQTRIYWQKEKKMVLTMMSGDMNIWPEYKNRTIFDITNNLSIVILALRPSDEGTYECVVLKYEKDAFKREHLAEVTLSVKADFPTPSISDFEIPTSNIRRIICSTSGGFPEPHLSWLENGEELNAINTTVSQDPETELYAVSSKLDFNMTTNHSFMCLIKYGHLRVNQTFNWNTTKQEHFPDNLLPSWAITLISVNGIFVICCLTYCFAPRCRERRRNERLRRESVRPV
notes: whole, on cells
B2: mouse ICOS-L (ligand, UniProt Q9JHJ8 47-277, looked up)
chain: ETEVGAMVGSNVVLSCIDPHRRHFNLSGLYVYWQIENPEVSVTYYLPYKSPGINVDSSYKNRGHLSLDSMKQGNFSLYLKNVTPQDTQEFTCRVFMNTATELVKILEEVVRLRVAANFSTPVISTSDSSNPGQERTYTCMSKNGYPEPNLYWINTTDNSLIDTALQNNTVYLNKLGLYDVISTLRLPWTSRGDVLCCVENVALHQNITSISQAESFTGNNTKNPQETHNNE
notes: also called mouse ortholog of ICOS-L
B3: ICOS-L Fc-fusion protein (soluble, purified) (Fc fusion, human, UniProt O75144 19-256, looked up, not shown: a dimerising Fc or GST)
chain: DTQEKEVRAMVGSDVELSCACPEGSRFDLNDVYVYWQTSESKTVVTYHIPQNSSLENVDSRYRNRALMSPAGMLRGDFSLRLFNVTPQDEQKFHCLVLSQSLGFQEVLSVEVTLHVAANFSVPVVSAPHSPSQDELTFTCTSINGYPRPNVYWINKTDNSLLDQALQNDTVFLNMRGLYDVVSVLRIARTPSVNIGCCIENVLLQQNLTVGSQTGNDIGERDKITENPVSTGEKNAAT
notes: Expressed in HEK 293 cells, purified by Ni2+-NTA and gel filtration; Used soluble or on protein A microbeads; also called ICOS-L Fc (IgG2a); ICOS-L mIgG2a
B4: TNFR-1B mutant K42D (receptor)
chain: LPAQVAFTPYAPEPGSTCRLREYYDQTAQMCCSKCSPGQHADVFCTKTSDTVCDSCEDSTYTQLWNWVPECLSCGSRCSSDQVETQACTREQNRICTCRPGWYCALSKQEGCRLCAPLRKCRPGFGVARPGTETSDVVCKPCAPGTFSNTTSSTDICRPHQICNVVAIPGNASMDAVCTSTSPTRSMAPGAVHLPQPVSTRSQHTQPTPEPSTAPSTSFLLPMGPSPPAEGSTGDFALPVGLIVGVTALGLLIIGVVNCVIMTQVKKKPLCLQREAKVPHLPADKARGTQGPEQQHLLITAPSSSSSSLESSASALDRRAPTRNQPQAPGVEASGAGEARASTGSSDSSPGGHGTQVNVTCIVNVCSSSDHSSQCSSQASSTMGDTDSSPSESPKDEQVPFSKEECAFRSQLETPETLLGSTEEKPLPLGVPDAGMKPS
notes: Point mutant expressed as mCherry fusion in HEK 293 cells; not shown: C-terminal mCherry fusion
B5: ICOS-L, human, expressed on HEK 293 cells (ligand, UniProt O75144 19-302, looked up)
chain: DTQEKEVRAMVGSDVELSCACPEGSRFDLNDVYVYWQTSESKTVVTYHIPQNSSLENVDSRYRNRALMSPAGMLRGDFSLRLFNVTPQDEQKFHCLVLSQSLGFQEVLSVEVTLHVAANFSVPVVSAPHSPSQDELTFTCTSINGYPRPNVYWINKTDNSLLDQALQNDTVFLNMRGLYDVVSVLRIARTPSVNIGCCIENVLLQQNLTVGSQTGNDIGERDKITENPVSTGEKNAATWSILAVLCLLVVVAVAIGWVCRDRCLQHSYAGAWAVSPETELTGHV
notes: whole, on cells; Expressed as GFP or mCherry fusion; Library form: ectodomain on the mouse PD-L1 transmembrane segment with GFP; also called Human ICOS-L
B6: TNFR-1B mutant N171D (receptor)
chain: B4 chain with D42K, N171D
notes: as for B4
B7: MadCAM-1, human, expressed on HEK 293 cells (ligand, UniProt Q13477 19-382, looked up)
chain: QSLQVKPLQVEPPEPVVAVALGASRQLTCRLACADRGASVQWRGLDTSLGAVQSDTGRSVLTVRNASLSAAGTRVCVGSCGGRTFQHTVQLLVYAFPDQLTVSPAALVPGDPEVACTAHKVTPVDPNALSFSLLVGGQELEGAQALGPEVQEEEEEPQGDEDVLFRVTERWRLPPLGTPVPPALYCQATMRLPGLELSHRQAIPVLHSPTSPEPPDTTSPESPDTTSPESPDTTSQEPPDTTSPEPPDKTSPEPAPQQGSTHTPRSPGSTRTRRPEISQAGPTQGEVIPTGSSKPAGDQLPAALWTSSAVLGLLLLALPTYHLWKRCRHLAEDDTHPPASLRLLPQVSAWAGLRGTGQVGISPS
notes: whole, on cells; GFP or mCherry fusion; library form has the ectodomain on the mouse PD-L1 transmembrane segment
B8: TNFR-1B mutant T48A (receptor)
chain: B4 chain with D42K, T48A
notes: as for B4

For experiment [1], the target named is T1, NGFR, human, expressed on cells (human, UniProt P08138 29-427).
T1 construct: whole, on cells
T1 sequence (looked up): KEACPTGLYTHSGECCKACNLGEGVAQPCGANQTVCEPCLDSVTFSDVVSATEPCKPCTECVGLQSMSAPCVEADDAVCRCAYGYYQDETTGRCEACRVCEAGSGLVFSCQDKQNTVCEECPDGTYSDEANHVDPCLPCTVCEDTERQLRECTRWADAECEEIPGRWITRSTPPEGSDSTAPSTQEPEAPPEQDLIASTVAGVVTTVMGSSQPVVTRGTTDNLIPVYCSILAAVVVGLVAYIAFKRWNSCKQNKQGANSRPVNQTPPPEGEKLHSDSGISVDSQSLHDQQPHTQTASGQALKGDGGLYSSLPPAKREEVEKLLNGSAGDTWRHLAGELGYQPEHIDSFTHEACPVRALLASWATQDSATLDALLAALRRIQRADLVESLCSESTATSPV
The experiment is described as follows: cell-cell FACS screen, NGFR query cells vs GFP library cells.

The next experiment concerns the target T2, mouse TNFR-1B (mouse, UniProt P25119 23-258).
T2 construct: also called mouse ortholog of TNFR-1B
T2 sequence (looked up): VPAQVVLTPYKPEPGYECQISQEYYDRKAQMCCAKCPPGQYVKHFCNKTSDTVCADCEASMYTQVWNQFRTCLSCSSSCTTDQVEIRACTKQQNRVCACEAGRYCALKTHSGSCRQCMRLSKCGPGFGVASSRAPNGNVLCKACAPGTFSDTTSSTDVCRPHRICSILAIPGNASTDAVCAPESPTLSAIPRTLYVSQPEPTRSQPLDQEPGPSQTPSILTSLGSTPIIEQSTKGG
The experiment in a line: mouse constructs tested; assay not described (data not shown).

The target in experiment [2] is T3, tumor necrosis factor receptor 1B (TNFR-1B), human, expressed on HEK 293 cells (human, UniProt P20333 23-461).
T3 construct: also called TNFR-1B-mCHERRY; Human TNFR-1B; not shown: C-terminal fluorescent protein (mCherry as query, GFP as library or panel member)
T3 sequence: B4 chain with D42K
The experiment is described as follows: soluble ICOS-L Fc on transfected cells, flow cytometry. On the technique in general: Flow cytometry measures light scatter and fluorescence of single cells or particles in a stream.

Experiment [3] addresses B5. The experiment in a line: cell-cell FACS, mutant-mCherry cells vs ligand-GFP cells.
The target in experiment [4] is T4, TNFα, cell-surface displayed on HEK 293 cells (Homo sapiens (Human), UniProt P01375 1-233, Expressed as a GFP fusion on HEK 293 cells. GFP is left out of the chain. The native protein is a homotrimer.).
T4 construct: also called TNF-alpha; cell surface expressed TNFα
The experiment is described as above.

In a further experiment the target is T5, TNFR-1B mutant D58A (human, UniProt P20333 23-461).
T5 construct: Point mutant expressed as mCherry fusion in HEK 293 cells; not shown: C-terminal mCherry fusion
T5 sequence: B4 chain with D42K, D58A
The description is as above.

In experiment [5] the target is T3, tumor necrosis factor receptor 1B …. The experiment is described as follows: listed as newly discovered in this disclosure (cell-cell FACS screens).

Numbering of substitutions follows the chain as printed.

T4 sequence (P01375 whole entry, form in doubt, the tested form may be a part): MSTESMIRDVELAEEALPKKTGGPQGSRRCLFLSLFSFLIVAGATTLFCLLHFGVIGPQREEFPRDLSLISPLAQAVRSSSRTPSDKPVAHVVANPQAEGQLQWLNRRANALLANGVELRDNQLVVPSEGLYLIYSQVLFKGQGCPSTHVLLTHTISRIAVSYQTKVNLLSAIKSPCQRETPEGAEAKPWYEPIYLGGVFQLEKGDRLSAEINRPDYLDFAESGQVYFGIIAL

Regarding B1, the binding result in experiment [1] is reported as “binds”. For B2, the binding result in the experiment with mouse TNFR-1B is “no binding”.

As for B3, the binding result in experiment [2] was “binds”.

In the case of B4, the “binding as percent of wild-type” value in experiment [3] and in experiment [4] was ~50 % of wild-type throughout. As to B5, the binding result (in the experiment with TNFR-1B mutant D58A; in experiment [5]) was “binds” in each case.

In the case of B6, the “binding as percent of wild-type” value in experiment [3] and in experiment [4] was ~50 % of wild-type throughout. Regarding B7, the binding result (with TNFR-1B mutant D58A; in experiment [5]) was “binds” each time. In the case of B8, the “binding as percent of wild-type” value in experiment [3] and in experiment [4] was ~50 % of wild-type each time.
